Reference: publication PMC4221194
Values belong to the substance of their own block, whether it stands above or below them.

Legend:
Assay in all cases: SEC; Superdex 75 10/300 GL column, after Ni-NTA purification; absorbance at 280 nm; proteins eluted at about 80 kDa
[1] = target: D22G-Angiogenin-GST (human Angiogenin D22G fused to GST, with a C-terminal hexa-histidine tag) (human) (UniProt P03950)
[2] = target: L35P-Angiogenin-GST (human Angiogenin L35P fused to GST, with a C-terminal hexa-histidine tag) (human) (UniProt P03950)
[3] = target: wild-type Angiogenin-GST (human Angiogenin fused to GST, with a C-terminal hexa-histidine tag) (human) (UniProt P03950)

stoichiometry N [1]: 2
Substance: D22G-Angiogenin-GST (human Angiogenin D22G fused to GST, with a C-terminal hexa-histidine tag) (from UniProt P03950 25-147) (enzyme)

stoichiometry N [2]: 2
Substance: L35P-Angiogenin-GST (human Angiogenin L35P fused to GST, with a C-terminal hexa-histidine tag) (from UniProt P03950 25-147) (enzyme)

stoichiometry N [3]: 2
Substance: wild-type Angiogenin-GST (human Angiogenin fused to GST, with a C-terminal hexa-histidine tag) (from UniProt P03950 25-147) (enzyme)
